# From patent US20230143003A1 (JULIUS MAXIMILIANS UNIVERSIT T W RZBURG, published 2023)
# B1: hX3.12.8 Fab (Fab, V domains shown)
# VH: EQQVVESGGGLVQPGGSLRLSCAASGFSLSSYGVTWVRQAPGKGLEWVGYINTAGNTYYASWAKSRFTISRDNSKNTVYLQMNSLRAEDTAVYYCARDDRWSLNIWGQGTLVTVSS
# VL: DPMLTQSPSSLSASVGDRVTITCQASQSISSDLSWYQQKPGKAPKLLIYQASTLASGVPSRFKGSGYGTEYTLTISSLQPEDFATYYCLGGYADASYRTAFGGGTKLEIK
# notes: The text says that hX3.12.5 to hX3.12.8 all utilized VL2
# B2: hX3.12.7 Fab (Fab, V domains shown)
# VH: EQQVVESGGGLVQPGGSLRLSCAVSGFSLSSYGVTWVRQAPGKGLEWIGYINTAGNTYYASWAKSRFTISRNTNENTVYLQMNSLRAEDTAVYFCARDDRWSLNIWGQGTLVTVSS
# VL: DPMLTQSPSSLSASVGDRVTITCQASQSISSDLSWYQQKPGKAPKLLIYQASTLASGVPSRFKGSGYGTEYTLTISSLQPEDFATYYCLGGYADASYRTAFGGGTKLEIK
# notes: as for B1
# B3: X3.6 (Fab, V domains shown)
# VH: QSVKESEGGLFKPTDTLTLTCTVSGFSLSSYGVTWVRQAPGSGLEWIGYINTAGNTYYASWAKSRSTITRNTNENTVTLKMTSLTAADTATYFCARDSRNSLNIWGPGTLVTVSS
# VL: DPMLTQTPSSTSTAVGDTVTIKCQASQSISSDLSWYQQKPGQRPKLLIYQASTLASGVPSRFKGSGYGTEYTLTISGVQREDAAIYYCLGGYADASYRTAFGGGTKLEIK
# notes: one of the top 12 chimeric rabbit/human anti-human ROR2 Fabs selected from the focused HCDR3 mutagenesis library
# B4: X3.13 (Fab, V domains shown)
# VH: QSVKESEGGLFKPTDTLTLTCTVSGFSLSSYGVTWVRQAPGSGLEWIGYINTAGNTYYASWAKSRSTITRNTNENTVTLKMTSLTAADTATYFCARDKGWSLNIWGPGTLVTVSS
# VL: DPMLTQTPSSTSTAVGDTVTIKCQASQSISSDLSWYQQKPGQRPKLLIYQASTLASGVPSRFKGSGYGTEYTLTISGVQREDAAIYYCLGGYADASYRTAFGGGTKLEIK
# notes: as for B3
# B5: X3.21 (Fab, V domains shown)
# VH: QSVKESEGGLFKPTDTLTLTCTVSGFSLSSYGVTWVRQAPGSGLEWIGYINTAGNTYYASWAKSRSTITRNTNENTVTLKMTSLTAADTATYFCARDGLTSLNIWGPGTLVTVSS
# VL: DPMLTQTPSSTSTAVGDTVTIKCQASQSISSDLSWYQQKPGQRPKLLIYQASTLASGVPSRFKGSGYGTEYTLTISGVQREDAAIYYCLGGYADASYRTAFGGGTKLEIK
# notes: as for B3
# B6: X4.21 (Fab, V domains shown)
# VH: QSVKESEGGLFKPTDTLTLTCTVSGFSLSSYGVTWVRQAPGSGLEWIGYINTAGNTYYASWAKSRSTITRNTNENTVTLKMTSLTAADTATYFCARDSGVVSLNIWGPGTLVTVSS
# VL: DPMLTQTPSSTSTAVGDTVTIKCQASQSISSDLSWYQQKPGQRPKLLIYQASTLASGVPSRFKGSGYGTEYTLTISGVQREDAAIYYCLGGYADASYRTAFGGGTKLEIK
# notes: as for B3
# B7: X4.3 (Fab, V domains shown)
# VH: QSVKESEGGLFKPTDTLTLTCTVSGFSLSSYGVTWVRQAPGSGLEWIGYINTAGNTYYASWAKSRSTITRNTNENTVTLKMTSLTAADTATYFCARDWGNWSLNIWGPGTLVTVSS
# VL: DPMLTQTPSSTSTAVGDTVTIKCQASQSISSDLSWYQQKPGQRPKLLIYQASTLASGVPSRFKGSGYGTEYTLTISGVQREDAAIYYCLGGYADASYRTAFGGGTKLEIK
# notes: as for B3
# B8: X4.9 (Fab, V domains shown)
# VH: QSVKESEGGLFKPTDTLTLTCTVSGFSLSSYGVTWVRQAPGSGLEWIGYINTAGNTYYASWAKSRSTITRNTNENTVTLKMTSLTAADTATYFCARDNGSTSLNIWGPGTLVTVSS
# VL: DPMLTQTPSSTSTAVGDTVTIKCQASQSISSDLSWYQQKPGQRPKLLIYQASTLASGVPSRFKGSGYGTEYTLTISGVQREDAAIYYCLGGYADASYRTAFGGGTKLEIK
# notes: as for B3
# B9: X4.12 (Fab, V domains shown)
# VH: QSVKESEGGLFKPTDTLTLTCTVSGFSLSSYGVTWVRQAPGSGLEWIGYINTAGNTYYASWAKSRSTITRNTNENTVTLKMTSLTAADTATYFCARDYMMNSLNIWGPGTLVTVSS
# VL: DPMLTQTPSSTSTAVGDTVTIKCQASQSISSDLSWYQQKPGQRPKLLIYQASTLASGVPSRFKGSGYGTEYTLTISGVQREDAAIYYCLGGYADASYRTAFGGGTKLEIK
# notes: as for B3
# B10: X4.35 (Fab, V domains shown)
# VH: QSVKESEGGLFKPTDTLTLTCTVSGFSLSSYGVTWVRQAPGSGLEWIGYINTAGNTYYASWAKSRSTITRNTNENTVTLKMTSLTAADTATYFCARDSRRKSLNIWGPGTLVTVSS
# VL: DPMLTQTPSSTSTAVGDTVTIKCQASQSISSDLSWYQQKPGQRPKLLIYQASTLASGVPSRFKGSGYGTEYTLTISGVQREDAAIYYCLGGYADASYRTAFGGGTKLEIK
# notes: as for B3
# B11: XBR2-401 Fab (parental chimeric rabbit/human anti-human ROR2 Fab) (Fab, V domains shown)
# VH: QSVKESEGGLFKPTDTLTLTCTVSGFSLSSYGVTWVRQAPGSGLEWIGYINTAGNTYYASWAKSRSTITRNTNENTVTLKMTSLTAADTATYFCARDWTSLNIWGPGTLVTVSS
# VL: DPMLTQTPSSTSTAVGDTVTIKCQASQSISSDLSWYQQKPGQRPKLLIYQASTLASGVPSRFKGSGYGTEYTLTISGVQREDAAIYYCLGGYADASYRTAFGGGTKLEIK
# notes: Chimeric rabbit/human Fab (rabbit variable domains, human constant domains, kappa light chain, His tag)
# B12: X2.7 (Fab, V domains shown)
# VH: QSVKESEGGLFKPTDTLTLTCTVSGFSLSSYGVTWVRQAPGSGLEWIGYINTAGNTYYASWAKSRSTITRNTNENTVTLKMTSLTAADTATYFCARDSMSLNIWGPGTLVTVSS
# VL: DPMLTQTPSSTSTAVGDTVTIKCQASQSISSDLSWYQQKPGQRPKLLIYQASTLASGVPSRFKGSGYGTEYTLTISGVQREDAAIYYCLGGYADASYRTAFGGGTKLEIK
# notes: as for B3
# B13: X2.12 (Fab, V domains shown)
# VH: QSVKESEGGLFKPTDTLTLTCTVSGFSLSSYGVTWVRQAPGSGLEWIGYINTAGNTYYASWAKSRSTITRNTNENTVTLKMTSLTAADTATYFCARDTMSLNIWGPGTLVTVSS
# VL: DPMLTQTPSSTSTAVGDTVTIKCQASQSISSDLSWYQQKPGQRPKLLIYQASTLASGVPSRFKGSGYGTEYTLTISGVQREDAAIYYCLGGYADASYRTAFGGGTKLEIK
# notes: as for B3
# B14: X2.23 (Fab, V domains shown)
# VH: QSVKESEGGLFKPTDTLTLTCTVSGFSLSSYGVTWVRQAPGSGLEWIGYINTAGNTYYASWAKSRSTITRNTNENTVTLKMTSLTAADTATYFCARDYTSLNIWGPGTLVTVSS
# VL: DPMLTQTPSSTSTAVGDTVTIKCQASQSISSDLSWYQQKPGQRPKLLIYQASTLASGVPSRFKGSGYGTEYTLTISGVQREDAAIYYCLGGYADASYRTAFGGGTKLEIK
# notes: as for B3
# Biological target: T1, hROR2-Fc (human ROR2 Fc fusion protein) (human, UniProt Q01974 34-403, limits assumed)
# T1 construct: Given both as hROR2-Fc and as Fc-hROR2, so the order of the two parts is not certain; also called Fc-hROR2; not shown: human Fc part (captured by a mouse anti-human IgG CH2 / Fcγ mAb)
# Assay: SPR, Biacore X100; hROR2-Fc captured, Fab injected
# Description: (§1) A CM5 chip immobilized with a mouse anti-human Fcγ mAb was used to capture Fc-hROR2.
# (§2) Kinetic and thermodynamic parameters for the ROR2 binding of purified anti-ROR2 Fab variants were measured by use of SPR as previously described [29], performed on a Biacore X100 instrument using Biacore reagents and software (GE Healthcare). Briefly, a CM5 sensor chip was immobilized with a mouse anti-human IgG CH2 mAb in order to capture the hROR2-Fc antigen.
row,Binder,Kd
1,B1,5.2 nM
2,B2,1.4 nM

# Biological target: T1, hROR2-Fc (human ROR2 Fc fusion protein)
# Assay: SPR (Biacore X100), Fc-hROR2 captured on CM5 chip via mouse anti-human Fcγ mAb, Fab as analyte, 1:1 binding model
# Description: as §1, §2
Binder,Kd,koff,kon
B3,3.2 nM,0.00019 s⁻¹,60000 M⁻¹ s⁻¹
B4,1.1 nM,2.7e-05 s⁻¹,26000 M⁻¹ s⁻¹
B5,1.9 nM,9.2e-05 s⁻¹,49000 M⁻¹ s⁻¹
B6,3.4 nM,8.1e-05 s⁻¹,24000 M⁻¹ s⁻¹
B7,1.3 nM,3.8e-05 s⁻¹,30000 M⁻¹ s⁻¹
B8,10 nM,0.00034 s⁻¹,33000 M⁻¹ s⁻¹
B9,2.8 nM,0.00015 s⁻¹,53000 M⁻¹ s⁻¹
B10,31 nM,0.0017 s⁻¹,54000 M⁻¹ s⁻¹
B11,7 nM,,
B12,1.5 nM,0.0001 s⁻¹,69000 M⁻¹ s⁻¹
B13,1.2 nM,4e-05 s⁻¹,34000 M⁻¹ s⁻¹
B14,1.4 nM,4.7e-05 s⁻¹,33000 M⁻¹ s⁻¹

# Biological target: T1, hROR2-Fc (human ROR2 Fc fusion protein)
# Assay: as above
# Remark: another data set of the same source
# Description: as §1, §2
Binder,koff,kon
B1,0.00067 s⁻¹,130000 M⁻¹ s⁻¹
B2,0.00016 s⁻¹,110000 M⁻¹ s⁻¹
